In publication PMC6943187:

Molecular target: WT FUS::EGFP (FUS tagged with a C-terminal GFP tag) (UniProt P35637)
Assay: single-molecule photobleaching step counting

WT FUS::EGFP (FUS tagged with a C-terminal GFP tag) (from UniProt P35637 1-526)
fraction of dimers (two-step photobleaching): 30%
